Measured values: PMC8545111, “Molecular Basis of the Versatile Regulatory Mechanism of HtrA-Type Protease AlgW from Pseudomonas aeruginosa” (mBio, 2021)
Substitutions are numbered along the chain they refer to.

Columns and labels:
AlgW-E151A = biological target: T1, AlgW-E151A (Pseudomonas aeruginosa, UniProt Q9HVX1 30-389, E151A); assay: cell-based or functional assay
T1 sequence: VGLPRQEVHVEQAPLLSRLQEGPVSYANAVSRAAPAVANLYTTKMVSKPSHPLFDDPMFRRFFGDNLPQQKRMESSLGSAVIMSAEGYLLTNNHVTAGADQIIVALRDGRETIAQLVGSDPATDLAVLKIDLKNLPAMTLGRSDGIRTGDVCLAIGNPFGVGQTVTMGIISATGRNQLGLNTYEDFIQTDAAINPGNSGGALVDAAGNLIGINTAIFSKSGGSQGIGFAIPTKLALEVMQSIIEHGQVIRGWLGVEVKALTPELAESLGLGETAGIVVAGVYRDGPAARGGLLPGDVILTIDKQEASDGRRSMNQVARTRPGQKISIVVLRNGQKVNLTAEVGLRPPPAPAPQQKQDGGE

AlgW-K287A = biological target: T2, AlgW-K287A (Pseudomonas aeruginosa, UniProt Q9HVX1 30-389, K287A); assay: cell-based or functional assay
T2 sequence: T1 sequence with A122E, K258A

AlgW-R279A = biological target: T3, AlgW-R279A (Pseudomonas aeruginosa, UniProt Q9HVX1 30-389, R279A); assay: cell-based or functional assay
T3 sequence: T1 sequence with A122E, R250A

AlgW-L282A = biological target: T4, AlgW-L282A (Pseudomonas aeruginosa, UniProt Q9HVX1 30-389, L282A); assay: cell-based or functional assay
T4 sequence: T1 sequence with A122E, L253A

AlgW-E285A = biological target: T5, AlgW-E285A (Pseudomonas aeruginosa, UniProt Q9HVX1 30-389, E285A); assay: cell-based or functional assay
T5 sequence: T1 sequence with A122E, E256A

[1] = biological target: T6, AlgWS227A (inactive mutant of the periplasmic soluble domain of AlgW, for crystallization) (Pseudomonas aeruginosa, UniProt Q9HVX1 52-389, S227A); assay: crystal structure; protein mixed with peptide activator (tripeptide WVF or decapeptide …) prior to crystallization; hanging-drop vapor diffusion at 18°C; molecular replacement; conditions: both partners purified
T6 construct: AlgW of Pseudomonas aeruginosa, residues 52-389 (construct for crystallization), catalytic serine S227 changed to alanine; source: E. coli BL21(DE3), purified (Ni-NTA, Superdex-75 SEC)
T6 sequence: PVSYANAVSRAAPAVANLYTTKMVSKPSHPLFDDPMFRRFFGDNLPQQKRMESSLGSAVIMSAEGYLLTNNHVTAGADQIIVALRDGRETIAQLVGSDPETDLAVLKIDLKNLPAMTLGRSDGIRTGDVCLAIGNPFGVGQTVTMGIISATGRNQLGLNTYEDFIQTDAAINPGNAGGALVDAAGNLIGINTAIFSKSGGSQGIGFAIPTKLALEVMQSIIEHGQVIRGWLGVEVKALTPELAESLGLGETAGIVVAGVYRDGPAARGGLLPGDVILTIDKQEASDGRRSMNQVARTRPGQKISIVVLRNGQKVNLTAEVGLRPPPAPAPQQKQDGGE

B1: decapeptide SVRDELRWVF (MucE C-terminal tail) (peptide)
peptide: SVRDELRWVF
notes: C-terminal decapeptide of the periplasmic protein MucE of Pseudomonas aeruginosa; also called C-terminal decapeptide of MucE
- half-maximal activation concentration of the peptide activator (cleavage of Abz-VLAG-pNA) (AlgW-E151A): 2.99 μM
- half-maximal activation concentration of the peptide activator (cleavage of Abz-VLAG-pNA) (AlgW-K287A): 6.53 μM
- maximal cleavage activity of peptide-activated AlgW (Abz-VLAG-pNA) (AlgW-K287A): 49.4 μM min^−1
- half-maximal activation concentration of the peptide activator (cleavage of Abz-VLAG-pNA) (AlgW-R279A): 2.19 μM
- half-maximal activation concentration of the peptide activator (cleavage of Abz-VLAG-pNA) (AlgW-L282A): 2.76 μM
- maximal cleavage activity of peptide-activated AlgW (Abz-VLAG-pNA) (AlgW-L282A): 13.2 μM min^−1
- half-maximal activation concentration of the peptide activator (cleavage of Abz-VLAG-pNA) (AlgW-E285A): 3.84 μM
- maximal cleavage activity of peptide-activated AlgW (Abz-VLAG-pNA) (AlgW-E285A): 57.5 μM min^−1
- binding result [1]: binds
